According to paper PMC6431053, “Enzyme kinetics of dUTPase from the planarian Dugesia ryukyuensis” (BMC Research Notes, 2019):

Key:
[1] = substrate: Cc1cn([C@H]2C[C@H](O)[C@@H](COP(=O)(O)OP(=O)(O)OP(=O)(O)O)O2)c(=O)[nH]c1=O; assay: purified protein; format: biochemical, Dugesia ryukyuensis; settings: 5 mM MgCl2, 100 mM KCl, 0.25 mM Bicine, pH 8.2, 100 µM nucleotide, 4–6 µM enzyme, n = 3
[2] = substrate: O=c1ccn([C@H]2C[C@H](O)[C@@H](COP(=O)(O)OP(=O)(O)OP(=O)(O)O)O2)c(=O)[nH]1; assay: purified protein; format: biochemical, Dugesia ryukyuensis; settings: 5 mM MgCl2, 100 mM KCl, 0.25 mM Bicine, pH 8.2, 25 °C, 10 µM dUTP, n = 7, kcat assumes three active sites per trimer, 25.0 °C

B1: Dr-dUTPase (Dugesia ryukyuensis; R66K) (protein)
chain: MSALKVLRFKKLSENATVPSRGSVLAAGFDLCSAENCVIPARGKQLVKTDIQISLPEGCYGRVAPKSGLALKHFIDVGAGVIDQDYRGNVGIVMFNFSENEFPISKGDRIAQLICERIYTPELLECESLDETERGEGGYGSTGINNSSQKNGH
notes: full-length 153 aa ORF, codon-optimized, pET-15b, E. coli BL21(DE3); His-tag cut by thrombin, N-terminal GSH left; 156 aa, 16,807 Da; R66K (G197A) removes internal thrombin site
Question: What does the source list for B1?
Answer: Km [1]: 1.1 × 10^2 ± 7.2 μM; kcat [1]: 1.4 ± 0.3 s⁻¹; kcat/Km [1]: 13000 ± 2800 M⁻¹ s⁻¹; Km [2]: 4.0 ± 0.4 µM; kcat [2]: 34 s⁻¹; kcat/Km [2]: 8.5e+06 ± 1.1e+06 M⁻¹ s⁻¹
